Measured values: US20240261333A1, “NOVEL TARGETS FOR ENHANCING ANTI-TUMOR IMMUNITY” (THE BROAD INSTITUTE, INC., priority 2021, published 2024)

Experiments:
NAP1L1 (human) = NAP1L1 (human) (UniProt P55209); test: co-IP with IgG control, lysate of C-FLAG B3GNT2 cells, mass spectrometry
DDX17 (human) = DDX17 (human) (UniProt Q92841); test: as above
RPS20 (human) = RPS20 (human) (UniProt P60866); test: as above
RUVBL2 (human) = RUVBL2 (human) (UniProt Q9Y230); test: as above
SRSF6 (human) = SRSF6 (human) (UniProt Q13247); test: as above
PLOD1 (human) = PLOD1 (human) (UniProt Q02809); test: as above
Sequence of PLOD1 (human) (Q02809 19-727 limits assumed): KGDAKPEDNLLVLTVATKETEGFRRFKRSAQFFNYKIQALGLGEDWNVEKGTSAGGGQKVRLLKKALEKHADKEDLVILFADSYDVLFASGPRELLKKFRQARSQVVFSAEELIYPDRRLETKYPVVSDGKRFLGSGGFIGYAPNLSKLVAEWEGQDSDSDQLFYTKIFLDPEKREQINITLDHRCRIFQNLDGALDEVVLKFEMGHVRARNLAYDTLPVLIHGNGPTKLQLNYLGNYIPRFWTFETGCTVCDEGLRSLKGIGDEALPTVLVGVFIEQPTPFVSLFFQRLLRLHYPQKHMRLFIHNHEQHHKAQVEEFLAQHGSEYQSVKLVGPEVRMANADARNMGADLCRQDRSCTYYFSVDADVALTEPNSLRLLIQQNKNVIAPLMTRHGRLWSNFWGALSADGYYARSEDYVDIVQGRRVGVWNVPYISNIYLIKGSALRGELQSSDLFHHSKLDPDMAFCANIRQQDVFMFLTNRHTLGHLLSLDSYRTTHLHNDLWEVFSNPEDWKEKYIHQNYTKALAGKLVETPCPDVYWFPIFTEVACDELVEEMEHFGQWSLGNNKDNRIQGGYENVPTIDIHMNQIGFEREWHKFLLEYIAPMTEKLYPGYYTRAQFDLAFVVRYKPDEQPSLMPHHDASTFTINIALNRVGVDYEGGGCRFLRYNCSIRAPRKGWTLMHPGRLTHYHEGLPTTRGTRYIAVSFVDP

CLTC (human) = CLTC (human) (UniProt Q00610); test: as above
UBA52 = UBA52 (UniProt P62987); test: co-IP with mouse IgG control, mass spectrometry; lysate of N-FLAG B3GNT2 cells
SERPINB12 = SERPINB12 (UniProt Q96P63); test: as above
HBA1 = HBA1 (UniProt P69905); test: as above
RPL10A = RPL10A (UniProt P62906); test: as above
ATP5F1B = ATP5F1B (UniProt P06576); test: as above
PCMT1 = PCMT1 (UniProt P22061); test: as above
TRIM21 = TRIM21 (UniProt P19474); test: as above
Sequence of TRIM21 (P19474 whole entry): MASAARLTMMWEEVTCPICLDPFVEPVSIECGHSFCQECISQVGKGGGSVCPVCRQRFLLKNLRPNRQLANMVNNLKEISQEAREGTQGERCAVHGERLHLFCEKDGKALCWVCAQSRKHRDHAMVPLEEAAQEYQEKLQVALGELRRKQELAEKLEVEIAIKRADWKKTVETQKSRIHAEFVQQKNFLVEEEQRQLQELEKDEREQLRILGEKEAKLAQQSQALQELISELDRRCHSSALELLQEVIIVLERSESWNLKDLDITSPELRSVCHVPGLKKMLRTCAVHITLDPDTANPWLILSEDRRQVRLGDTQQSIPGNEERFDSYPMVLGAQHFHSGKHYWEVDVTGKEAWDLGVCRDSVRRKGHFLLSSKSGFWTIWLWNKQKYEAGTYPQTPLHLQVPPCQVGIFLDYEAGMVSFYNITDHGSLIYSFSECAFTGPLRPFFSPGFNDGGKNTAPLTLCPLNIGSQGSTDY

SLIRP = SLIRP (UniProt Q9GZT3); test: as above
RPN1 = RPN1 (UniProt P04843); test: as above
SPRR2E = SPRR2E (UniProt P22531); test: as above
Sequence of SPRR2E (P22531 whole entry): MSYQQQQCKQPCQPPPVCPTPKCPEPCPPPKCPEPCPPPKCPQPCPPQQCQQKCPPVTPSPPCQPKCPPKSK

S100A8 = S100A8 (UniProt P05109); test: as above
Sequence of S100A8 (P05109 whole entry): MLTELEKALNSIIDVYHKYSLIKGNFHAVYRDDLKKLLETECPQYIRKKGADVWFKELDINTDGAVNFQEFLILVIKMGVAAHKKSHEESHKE

TPI1 = TPI1 (UniProt P60174); test: as above
ENO1 = ENO1 (UniProt P06733); test: as above
RPL21 = RPL21 (UniProt P46778); test: as above
SSR1 = SSR1 (UniProt P43307); test: as above
Sequence of SSR1 (P43307 19-286 limits assumed): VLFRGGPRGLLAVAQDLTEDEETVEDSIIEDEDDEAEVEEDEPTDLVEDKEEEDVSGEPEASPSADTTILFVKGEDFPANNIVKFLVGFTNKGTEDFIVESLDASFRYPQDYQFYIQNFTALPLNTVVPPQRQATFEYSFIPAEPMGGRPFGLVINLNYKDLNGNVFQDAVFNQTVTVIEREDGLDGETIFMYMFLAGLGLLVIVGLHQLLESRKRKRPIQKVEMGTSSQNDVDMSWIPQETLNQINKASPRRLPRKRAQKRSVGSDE

EEF1A1 = EEF1A1 (UniProt P68104); test: as above
Sequence of EEF1A1 (P68104 2-462 limits assumed): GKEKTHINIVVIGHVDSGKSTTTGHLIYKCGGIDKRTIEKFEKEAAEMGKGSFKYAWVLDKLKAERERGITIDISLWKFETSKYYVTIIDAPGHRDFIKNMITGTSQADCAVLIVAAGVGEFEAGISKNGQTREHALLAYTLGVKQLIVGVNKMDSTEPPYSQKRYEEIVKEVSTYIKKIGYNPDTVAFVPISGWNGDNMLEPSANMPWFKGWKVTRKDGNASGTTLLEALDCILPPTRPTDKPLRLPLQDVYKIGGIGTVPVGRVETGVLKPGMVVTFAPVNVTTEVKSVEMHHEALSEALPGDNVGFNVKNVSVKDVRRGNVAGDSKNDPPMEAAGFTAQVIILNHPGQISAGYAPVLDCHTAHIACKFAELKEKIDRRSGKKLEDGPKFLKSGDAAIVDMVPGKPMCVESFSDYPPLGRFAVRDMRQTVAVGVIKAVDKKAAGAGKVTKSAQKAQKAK

LTF = LTF (UniProt P02788); test: as above
Sequence of LTF (P02788 20-710 limits assumed): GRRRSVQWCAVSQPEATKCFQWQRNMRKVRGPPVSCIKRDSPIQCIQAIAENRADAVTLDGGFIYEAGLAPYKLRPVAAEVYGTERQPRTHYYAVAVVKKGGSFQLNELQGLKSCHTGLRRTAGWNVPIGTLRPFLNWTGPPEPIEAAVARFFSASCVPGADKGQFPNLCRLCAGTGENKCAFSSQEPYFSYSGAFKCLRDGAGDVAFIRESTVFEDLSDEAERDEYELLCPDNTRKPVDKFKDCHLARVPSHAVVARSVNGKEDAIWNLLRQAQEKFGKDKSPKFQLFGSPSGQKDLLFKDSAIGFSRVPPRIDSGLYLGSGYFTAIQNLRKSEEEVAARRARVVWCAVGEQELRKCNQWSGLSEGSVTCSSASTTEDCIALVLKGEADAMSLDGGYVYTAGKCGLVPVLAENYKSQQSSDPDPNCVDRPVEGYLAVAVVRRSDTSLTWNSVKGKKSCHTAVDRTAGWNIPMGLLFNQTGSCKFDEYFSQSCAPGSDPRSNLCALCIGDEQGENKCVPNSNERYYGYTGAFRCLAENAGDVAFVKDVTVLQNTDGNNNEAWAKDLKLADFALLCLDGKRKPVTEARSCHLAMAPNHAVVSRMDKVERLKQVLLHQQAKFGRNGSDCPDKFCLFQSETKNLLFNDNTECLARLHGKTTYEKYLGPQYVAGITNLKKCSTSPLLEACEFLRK

ATXN2L = ATXN2L (UniProt Q8WWM7); test: as above
Sequence of ATXN2L (Q8WWM7 whole entry): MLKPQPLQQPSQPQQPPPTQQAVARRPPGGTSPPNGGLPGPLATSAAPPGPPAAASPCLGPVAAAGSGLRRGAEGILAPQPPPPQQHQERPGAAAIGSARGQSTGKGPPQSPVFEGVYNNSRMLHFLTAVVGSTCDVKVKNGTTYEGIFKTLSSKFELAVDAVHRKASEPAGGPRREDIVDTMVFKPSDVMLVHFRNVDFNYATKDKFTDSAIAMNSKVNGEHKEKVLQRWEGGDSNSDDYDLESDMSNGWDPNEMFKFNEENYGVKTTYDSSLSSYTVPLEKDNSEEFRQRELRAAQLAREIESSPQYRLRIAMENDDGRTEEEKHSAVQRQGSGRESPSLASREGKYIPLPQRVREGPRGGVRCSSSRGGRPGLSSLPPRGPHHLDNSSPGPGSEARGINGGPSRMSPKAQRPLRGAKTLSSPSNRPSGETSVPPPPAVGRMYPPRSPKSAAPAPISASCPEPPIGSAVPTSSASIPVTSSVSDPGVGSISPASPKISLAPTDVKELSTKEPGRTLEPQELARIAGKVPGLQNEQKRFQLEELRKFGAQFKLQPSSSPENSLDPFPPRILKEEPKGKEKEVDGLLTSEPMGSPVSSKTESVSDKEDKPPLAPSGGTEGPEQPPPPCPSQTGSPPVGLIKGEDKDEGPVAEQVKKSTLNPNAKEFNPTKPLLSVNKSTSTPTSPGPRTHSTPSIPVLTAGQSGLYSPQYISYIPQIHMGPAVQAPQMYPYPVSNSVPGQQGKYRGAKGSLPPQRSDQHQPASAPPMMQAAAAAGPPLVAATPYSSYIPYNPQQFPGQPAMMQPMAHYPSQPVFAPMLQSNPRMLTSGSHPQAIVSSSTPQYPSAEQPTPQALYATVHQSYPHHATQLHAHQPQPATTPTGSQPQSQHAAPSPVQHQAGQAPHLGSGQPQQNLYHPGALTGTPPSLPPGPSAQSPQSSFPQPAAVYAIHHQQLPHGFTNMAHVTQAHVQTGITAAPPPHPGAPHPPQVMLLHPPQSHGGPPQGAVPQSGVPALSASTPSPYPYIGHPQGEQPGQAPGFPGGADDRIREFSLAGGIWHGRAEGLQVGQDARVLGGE

RCC2 = RCC2 (UniProt Q9P258); test: as above
RPLP2 = RPLP2 (UniProt P05387); test: as above
Sequence of RPLP2 (P05387 whole entry): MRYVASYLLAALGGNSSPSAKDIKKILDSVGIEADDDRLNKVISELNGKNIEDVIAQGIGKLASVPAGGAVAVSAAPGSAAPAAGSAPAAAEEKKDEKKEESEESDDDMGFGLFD

HNRNPA1 = HNRNPA1 (UniProt P09651); test: as above
STRAP = STRAP (UniProt Q9Y3F4); test: as above
RPL36A = RPL36A (UniProt P83881); test: as above
RPL11 = RPL11 (UniProt P62913); test: as above
AHNAK = AHNAK (UniProt Q09666); test: as above
RPL36 = RPL36 (UniProt Q9Y3U8); test: as above
HNRNPF = HNRNPF (UniProt P52597); test: as above
Sequence of HNRNPF (P52597 2-415 limits assumed): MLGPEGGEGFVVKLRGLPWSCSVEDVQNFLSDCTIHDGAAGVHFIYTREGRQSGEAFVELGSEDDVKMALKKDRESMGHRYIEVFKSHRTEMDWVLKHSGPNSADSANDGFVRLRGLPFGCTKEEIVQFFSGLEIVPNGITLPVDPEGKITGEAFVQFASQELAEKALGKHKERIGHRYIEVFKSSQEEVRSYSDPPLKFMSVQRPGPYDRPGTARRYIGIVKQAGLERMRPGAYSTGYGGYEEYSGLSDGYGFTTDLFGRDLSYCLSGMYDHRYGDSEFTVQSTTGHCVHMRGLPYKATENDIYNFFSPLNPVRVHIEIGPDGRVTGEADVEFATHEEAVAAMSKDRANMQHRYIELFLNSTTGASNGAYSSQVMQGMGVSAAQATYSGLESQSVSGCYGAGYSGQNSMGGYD

ACTR3 = ACTR3 (UniProt P61158); test: as above
RPS11 = RPS11 (UniProt P62280); test: as above
PPIA = PPIA (UniProt P62937); test: as above
Sequence of PPIA (P62937 2-165 limits assumed): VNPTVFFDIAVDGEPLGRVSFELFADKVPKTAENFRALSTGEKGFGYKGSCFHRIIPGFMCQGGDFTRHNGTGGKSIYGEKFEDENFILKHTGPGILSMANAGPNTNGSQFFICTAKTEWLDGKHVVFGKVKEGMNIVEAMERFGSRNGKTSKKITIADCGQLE

RPS15A = RPS15A (UniProt P62244); test: as above

Sequence of NAP1L1 (human) (P55209 2-388 limits assumed): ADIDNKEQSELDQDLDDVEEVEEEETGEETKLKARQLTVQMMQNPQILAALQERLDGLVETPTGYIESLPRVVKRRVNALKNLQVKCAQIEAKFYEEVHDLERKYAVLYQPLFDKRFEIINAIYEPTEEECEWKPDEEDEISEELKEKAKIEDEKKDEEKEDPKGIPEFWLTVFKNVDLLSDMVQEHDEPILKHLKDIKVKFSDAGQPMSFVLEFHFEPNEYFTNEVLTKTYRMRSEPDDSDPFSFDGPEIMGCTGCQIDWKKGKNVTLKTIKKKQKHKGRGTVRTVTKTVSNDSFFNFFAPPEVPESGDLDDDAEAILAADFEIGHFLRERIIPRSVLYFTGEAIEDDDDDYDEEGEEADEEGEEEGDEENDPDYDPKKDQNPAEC

Question: For “IgG control (Millipore Sigma 12-371) (antibody)”, which co-IP/MS count, C-term IgG (NAP1L1 (human)) is on record?
Answer: 0

Question: What about the co-IP/MS count, C-term IgG (DDX17 (human)) of the same substance?
Answer: 22

Question: And the co-IP/MS count, C-term IgG (RPS20 (human))?
Answer: 5

Question: What about the co-IP/MS count, C-term IgG (RUVBL2 (human)) of the same substance?
Answer: 0

Question: What about the co-IP/MS count, C-term IgG (SRSF6 (human)) of the same substance?
Answer: 5

Question: And the co-IP/MS count, C-term IgG (PLOD1 (human))?
Answer: 0

Question: What about the co-IP/MS count, C-term IgG (CLTC (human)) of the same substance?
Answer: 5

Question: What about the co-IP mass spectrometry count (UBA52) of the same substance?
Answer: 5

Question: What about the co-IP mass spectrometry count (SERPINB12) of the same substance?
Answer: 0

Question: What about the co-IP mass spectrometry count (HBA1) of the same substance?
Answer: 3

Question: What about the co-IP mass spectrometry count (RPL10A) of the same substance?
Answer: 4

Question: What about the co-IP mass spectrometry count (ATP5F1B) of the same substance?
Answer: 0

Question: What about the co-IP mass spectrometry count (PCMT1) of the same substance?
Answer: 0

Question: What about the co-IP mass spectrometry count (TRIM21) of the same substance?
Answer: 0

Question: And the co-IP mass spectrometry count (SLIRP)?
Answer: 0

Question: What about the co-IP mass spectrometry count (RPN1) of the same substance?
Answer: 0

Question: And the co-IP mass spectrometry count (SPRR2E)?
Answer: 3

Question: And the co-IP mass spectrometry count (S100A8)?
Answer: 4

Question: And the co-IP mass spectrometry count (TPI1)?
Answer: 2

Question: What about the co-IP mass spectrometry count (ENO1) of the same substance?
Answer: 2

Question: What about the co-IP mass spectrometry count (RPL21) of the same substance?
Answer: 5

Question: And the co-IP mass spectrometry count (SSR1)?
Answer: 0

Question: What about the co-IP mass spectrometry count (EEF1A1) of the same substance?
Answer: 8

Question: And the co-IP mass spectrometry count (LTF)?
Answer: 6

Question: And the co-IP mass spectrometry count (ATXN2L)?
Answer: 3

Question: And the co-IP mass spectrometry count (RCC2)?
Answer: 0

Question: What about the co-IP mass spectrometry count (RPLP2) of the same substance?
Answer: 3

Question: And the co-IP mass spectrometry count (HNRNPA1)?
Answer: 4

Question: And the co-IP mass spectrometry count (STRAP)?
Answer: 0

Question: What about the co-IP mass spectrometry count (RPL36A) of the same substance?
Answer: 2

Question: What about the co-IP mass spectrometry count (RPL11) of the same substance?
Answer: 3

Question: And the co-IP mass spectrometry count (AHNAK)?
Answer: 0

Question: And the co-IP mass spectrometry count (RPL36)?
Answer: 0

Question: What about the co-IP mass spectrometry count (HNRNPF) of the same substance?
Answer: 0

Question: And the co-IP mass spectrometry count (ACTR3)?
Answer: 3

Question: And the co-IP mass spectrometry count (RPS11)?
Answer: 8

Question: What about the co-IP mass spectrometry count (PPIA) of the same substance?
Answer: 0

Question: What about the co-IP mass spectrometry count (RPS15A) of the same substance?
Answer: 2
